Source: publication PMC7367873, “Dissecting the sequence determinants for dephosphorylation by the catalytic subunits of phosphatases PP1 and PP2A” (Nature Communications, 2020)

B1: YTHDF2 (protein, UniProt Q9Y5A9 2-579, looked up)
YTH domain-containing family …: SASSLLEQRPKGQGNKVQNGSVHQKDGLNDDDFEPYLSPQARPNNAYTAMSDSYLPSYYSPSIGFSYSLGEAAWSTGGDTAMPYLTSYGQLSNGEPHFLPDAMFGQPGALGSTPFLGQHGFNFFPSGIDFSAWGNNSSQGQSTQSSGYSSNYAYAPSSLGGAMIDGQSAFANETLNKAPGMNTIDQGMAALKLGSTEVASNVPKVVGSAVGSGSITSNIVASNSLPPATIAPPKPASWADIASKPAKQQPKLKTKNGIAGSSLPPPPIKHNMDIGTWDNKGPVAKAPSQALVQNIGQPTQGSPQPVGQQANNSPPVAQASVGQQTQPLPPPPPQPAQLSVQQQAAQPTRWVAPRNRGSGFGHNGVDGNGVGQSQAGSGSTPSEPHPVLEKLRSINNYNPKDFDWNLKHGRVFIIKSYSEDDIHRSIKYNIWCSTEHGNKRLDAAYRSMNGKGPVYLLFSVNGSGHFCGVAEMKSAVDYNTCAGVWSQDKWKGRFDVRWIFVKDVPNSQLRHIRLENNENKPVTNSRDTQEVPLEKAKQVLKIIASYKHTTSIFDDFSHYEKRQEEEESVKKERQGRGK
B2: TOMM22 (protein, UniProt Q9NS69 2-142, looked up)
Mitochondrial import receptor …: AAAVAAAGAGEPQSPDELLPKGDAEKPEEELEEDDDEELDETLSERLWGLTEMFPERVRSAAGATFDLSLFVAQKMYRFSRAALWIGTTSFMILVLPVVFETEKLQMEQQQQLQQRQILLGPNTGLSGGMPGALPSLPGKI
B3: SERBP1 (protein, UniProt Q8NC51 2-408, looked up)
SERPINE1 mRNA-binding protein …: PGHLQEGFGCVVTNRFDQLFDDESDPFEVLKAAENKKKEAGGGGVGGPGAKSAAQAAAQTNSNAAGKQLRKESQKDRKNPLPPSVGVVDKKEETQPPVALKKEGIRRVGRRPDQQLQGEGKIIDRRPERRPPRERRFEKPLEEKGEGGEFSVDRPIIDRPIRGRGGLGRGRGGRGRGMGRGDGFDSRGKREFDRHSGSDRSSFSHYSGLKHEDKRGGSGSHNWGTVKDELTESPKYIQKQISYNYSDLDQSNVTEETPEGEEHHPVADTENKENEVEEVKEEGPKEMTLDEWKAIQNKDRAKVEFNIRKPNEGADGQWKKGFVLHKSKSEEAHAEDSVMDHHFRKPANDITSQLEINFGDLGRPGRGGRGGRGGRGRGGRPNRGSRTDKSSASAPDVDDPEAFPALA
B4: G3BP2 (protein, UniProt Q9UN86 2-482, looked up)
Ras GTPase-activating …: VMEKPSPLLVGREFVRQYYTLLNKAPEYLHRFYGRNSSYVHGGVDASGKPQEAVYGQNDIHHKVLSLNFSECHTKIRHVDAHATLSDGVVVQVMGLLSNSGQPERKFMQTFVLAPEGSVPNKFYVHNDMFRYEDEVFGDSEPELDEESEDEVEEEQEERQPSPEPVQENANSGYYEAHPVTNGIEEPLEESSHEPEPEPESETKTEELKPQVEEKNLEELEEKSTTPPPAEPVSLPQEPPKAFSWASVTSKNLPPSGTVSSSGIPPHVKAPVSQPRVEAKPEVQSQPPRVREQRPRERPGFPPRGPRPGRGDMEQNDSDNRRIIRYPDSHQLFVGNLPHDIDENELKEFFMSFGNVVELRINTKGVGGKLPNFGFVVFDDSEPVQRILIAKPIMFRGEVRLNVEEKKTRAARERETRGGGDDRRDIRRNDRGPGGPRGIVGGGMMRDRDGRGPPPRGGMAQKLGSGRGTGQMEGRFTGQRR
B5: SLC25A3 (protein, UniProt Q00325 50-362, looked up)
Solute carrier family 25 …: AVEEQYSCDYGSGRFFILCGLGGIISCGTTHTALVPLDLVKCRMQVDPQKYKGIFNGFSVTLKEDGVRGLAKGWAPTFLGYSMQGLCKFGFYEVFKVLYSNMLGEENTYLWRTSLYLAASASAEFFADIALAPMEAAKVRIQTQPGYANTLRDAAPKMYKEEGLKAFYKGVAPLWMRQIPYTMMKFACFERTVEALYKFVVPKPRSECSKPEQLVVTFVAGYIAGVFCAIVSHPADSVVSVLNKEKGSSASLVLKRLGFKGVWKGLFARIIMIGTLTALQWFIYDSVKVYFRLPRPPPPEMPESLKKKLGLTQ
B6: HACD3 (protein, UniProt Q9P035 1-362, looked up)
Very-long-chain …: MENQVLTPHVYWAQRHRELYLRVELSDVQNPAISITENVLHFKAQGHGAKGDNVYEFHLEFLDLVKPEPVYKLTQRQVNITVQKKVSQWWERLTKQEKRPLFLAPDFDRWLDESDAEMELRAKEEERLNKLRLESEGSPETLTNLRKGYLFMYNLVQFLGFSWIFVNLTVRFCILGKESFYDTFHTVADMMYFCQMLAVVETINAAIGVTTSPVLPSLIQLLGRNFILFIIFGTMEEMQNKAVVFFVFYLWSAIEIFRYSFYMLTCIDMDWKVLTWLRYTLWIPLYPLGCLAEAVSVIQSIPIFNETGRFSFTLPYPVKIKVRFSFFLQIYLIMIFLGLYINFRHLYKQRRRRYGQKKKKIH
B7: ZC3HAV1 (protein, UniProt Q7Z2W4 2-902, looked up)
Zinc finger CCCH-type …: ADPEVCCFITKILCAHGGRMALDALLQEIALSEPQLCEVLQVAGPDRFVVLETGGEAGITRSVVATTRARVCRRKYCQRPCDNLHLCKLNLLGRCNYSQSERNLCKYSHEVLSEENFKVLKNHELSGLNKEELAVLLLQSDPFFMPEICKSYKGEGRQQICNQQPPCSRLHICDHFTRGNCRFPNCLRSHNLMDRKVLAIMREHGLNPDVVQNIQDICNSKHMQKNPPGPRAPSSHRRNMAYRARSKSRDRFFQGSQEFLASASASAERSCTPSPDQISHRASLEDAPVDDLTRKFTYLGSQDRARPPSGSSKATDLGGTSQAGTSQRFLENGSQEDLLHGNPGSTYLASNSTSAPNWKSLTSWTNDQGARRKTVFSPTLPAARSSLGSLQTPEAVTTRKGTGLLSSDYRIINGKSGTQDIQPGPLFNNNADGVATDITSTRSLNYKSTSSGHREISSPRIQDAGPASRDVQATGRIADDADPRVALVNDSLSDVTSTTSSRVDDHDSEEICLDHLCKGCPLNGSCSKVHFHLPYRWQMLIGKTWTDFEHMETIEKGYCNPGIHLCSVGSYTINFRVMSCDSFPIRRLSTPSSVTKPANSVFTTKWIWYWKNESGTWIQYGEEKDKRKNSNVDSSYLESLYQSCPRGVVPFQAGSRNYELSFQGMIQTNIASKTQKDVIRRPTFVPQWYVQQMKRGPDHQPAKTSSVSLTATFRPQEDFCFLSSKKYKLSEIHHLHPEYVRVSEHFKASMKNFKIEKIKKIENSELLDKFTWKKSQMKEEGKLLFYATSRAYVESICSNNFDSFLHETHENKYGKGIYFAKDAIYSHKNCPYDAKNVVMFVAQVLVGKFTEGNITYTSPPPQFDSCVDTRSNPSVFVIFQKDQVYPQYVIEYTEDKACVIS
B8: ALDH18A1 (protein, UniProt P54886 1-795, looked up)
Delta-1-pyrroline-5-carboxylat …: MLSQVYRCGFQPFNQHLLPWVKCTTVFRSHCIQPSVIRHVRSWSNIPFITVPLSRTHGKSFAHRSELKHAKRIVVKLGSAVVTRGDECGLALGRLASIVEQVSVLQNQGREMMLVTSGAVAFGKQRLRHEILLSQSVRQALHSGQNQLKEMAIPVLEARACAAAGQSGLMALYEAMFTQYSICAAQILVTNLDFHDEQKRRNLNGTLHELLRMNIVPIVNTNDAVVPPAEPNSDLQGVNVISVKDNDSLAARLAVEMKTDLLIVLSDVEGLFDSPPGSDDAKLIDIFYPGDQQSVTFGTKSRVGMGGMEAKVKAALWALQGGTSVVIANGTHPKVSGHVITDIVEGKKVGTFFSEVKPAGPTVEQQGEMARSGGRMLATLEPEQRAEIIHHLADLLTDQRDEILLANKKDLEEAEGRLAAPLLKRLSLSTSKLNSLAIGLRQIAASSQDSVGRVLRRTRIAKNLELEQVTVPIGVLLVIFESRPDCLPQVAALAIASGNGLLLKGGKEAAHSNRILHLLTQEALSIHGVKEAVQLVNTREEVEDLCRLDKMIDLIIPRGSSQLVRDIQKAAKGIPVMGHSEGICHMYVDSEASVDKVTRLVRDSKCEYPAACNALETLLIHRDLLRTPLFDQIIDMLRVEQVKIHAGPKFASYLTFSPSEVKSLRTEYGDLELCIEVVDNVQDAIDHIHKYGSSHTDVIVTEDENTAEFFLQHVDSACVFWNASTRFSDGYRFGLGAEVGISTSRIHARGPVGLEGLLTTKWLLRGKDHVVSDFSEHGSLKYLHENLPIPQRNTN
B9: MGST1 (protein, UniProt P10620 1-155, looked up)
Microsomal glutathione …: MVDLTQVMDDEVFMAFASYATIILSKMMLMSTATAFYRLTRKVFANPEDCVAFGKGENAKKYLRTDDRVERVRRAHLNDLENIIPFLGIGLLYSLSGPDPSTAILHFRLFVGARIYHTIAYLTPLPQPNRALSFFVGYGVTLSMAYRLLKSKLYL
B10: ABCG2 (protein, UniProt Q9UNQ0 1-655, looked up)
Broad substrate specificity …: MSSSNVEVFIPVSQGNTNGFPATASNDLKAFTEGAVLSFHNICYRVKLKSGFLPCRKPVEKEILSNINGIMKPGLNAILGPTGGGKSSLLDVLAARKDPSGLSGDVLINGAPRPANFKCNSGYVVQDDVVMGTLTVRENLQFSAALRLATTMTNHEKNERINRVIQELGLDKVADSKVGTQFIRGVSGGERKRTSIGMELITDPSILFLDEPTTGLDSSTANAVLLLLKRMSKQGRTIIFSIHQPRYSIFKLFDSLTLLASGRLMFHGPAQEALGYFESAGYHCEAYNNPADFFLDIINGDSTAVALNREEDFKATEIIEPSKQDKPLIEKLAEIYVNSSFYKETKAELHQLSGGEKKKKITVFKEISYTTSFCHQLRWVSKRSFKNLLGNPQASIAQIIVTVVLGLVIGAIYFGLKNDSTGIQNRAGVLFFLTTNQCFSSVSAVELFVVEKKLFIHEYISGYYRVSSYFLGKLLSDLLPMRMLPSIIFTCIVYFMLGLKPKADAFFVMMFTLMMVAYSASSMALAIAAGQSVVSVATLLMTICFVFMMIFSGLLVNLTTIASWLSWLQYFSIPRYGFTALQHNEFLGQNFCPGLNATGNNPCNYATCTGEEYLVKQGIDLSPWGLWKNHVALACMIVIFLTIAYLKLLFLKKYS
B11: RPN1 (protein, UniProt P04843 24-607, looked up)
Dolichyl-diphosphooligosacchar …: ASSEAPPLINEDVKRTVDLSSHLAKVTAEVVLAHLGGGSTSRATSFLLALEPELEARLAHLGVQVKGEDEEENNLEVRETKIKGKSGRFFTVKLPVALDPGAKISVIVETVYTHVLHPYPTQITQSEKQFVVFEGNHYFYSPYPTKTQTMRVKLASRNVESYTKLGNPTRSEDLLDYGPFRDVPAYSQDTFKVHYENNSPFLTITSMTRVIEVSHWGNIAVEENVDLKHTGAVLKGPFSRYDYQRQPDSGISSIRSFKTILPAAAQDVYYRDEIGNVSTSHLLILDDSVEMEIRPRFPLFGGWKTHYIVGYNLPSYEYLYNLGDQYALKMRFVDHVFDEQVIDSLTVKIILPEGAKNIEIDSPYEISRAPDELHYTYLDTFGRPVIVAYKKNLVEQHIQDIVVHYTFNKVLMLQEPLLVVAAFYILFFTVIIYVRLDFSITKDPAAEARMKVACITEQVLTLVNKRIGLYRHFDETVNRYKQSRDISTLNSGKKSLETEHKALTSEIALLQSRLKTEGSDLCDRVSEMQKLDAQVKELVLKSAVEAERLVAGKLKKDTYIENEKLISGKRQELVTKIDHILDAL

Columns and labels:
[1] = system: GFP-14-3-3β and its binding proteins; test: GFP-14-3-3β co-IP with LC-MS/MS label-free quantification, untreated versus PP1c-treated; design: species or system human; settings: PP1 vs untreated; label-free quantification
[2] = system: GFP-14-3-3β; test: GFP-14-3-3β co-IP with LC-MS/MS, untreated GFP-14-3-3β versus GFP control (14-3-3 interactome); assay type: binding, human; settings: untreated vs GFP; label-free quantification

| Molecule | Difference (log2), PP1 vs untreated [1] | Difference (log2), untreated vs GFP [2] |
| --- | --- | --- |
| B1 | 1.045 log2 | 1.029 log2 |
| B2 | 0.9341 log2 | -0.3585 log2 |
| B3 | 1.03 log2 | -0.2637 log2 |
| B4 | 0.991 log2 | 0.002451 log2 |
| B5 | 1.025 log2 | 1.257 log2 |
| B6 | 0.9389 log2 | -0.3489 log2 |
| B7 | 1.025 log2 | -0.3627 log2 |
| B8 | 0.9496 log2 | -0.8261 log2 |
| B9 | 1.003 log2 | 1.613 log2 |
| B10 | 0.9597 log2 | -0.7786 log2 |
| B11 | 1.002 log2 | 0.04558 log2 |
